According to patent US20220220215A1 (CRESCENDO BIOLOGICS, published 2022):

B1: TPP-1247 CD137A-6GS-HSA3-6GS-PD138G7(G109D) (bispecific antibody)
chain: EVQLVESGGGLVQPGGSLRLSCAASGFTLSNYWMNWVRQAPGKGLEWVANINQDGSERYYVDSVKGRFTISRDNAKNSLYLQMNSLRAEDTAVYYCARGGEGYGVDHYGLDVSGQGTTVTVSSGGGGSGGGGSGGGGSGGGGSGGGGSGGGGSEVQLLESGGGLVKPGGSLRLSCAASGFTVSSYTMNWVRQAPGKGLEWVSSISSSGRYIYYADSVKGRFTISRDNAKNSLYLQMNSLRAEDTAVYYCARDPRMVGNPHEFDIWGQGTMVTVSSGGGGSGGGGSGGGGSGGGGSGGGGSGGGGSEVQLVESGGGVVRPGGSLRLSCAASGFTFDDYAMSWVRQAPGKGLEWVSGITWNGGSTGYADSVKDRFTISRDNAKNSLYLQMNSLRAEDTALYYCVRDKYSYAWSYDDFDIWGQGTMVTVSS
B2: TPP-1010: PD138G7(G109D)-6GS-HSA2-6GS- CD137D -His (bispecific antibody)
chain: EVQLVESGGGVVRPGGSLRLSCAASGFTFDDYAMSWVRQAPGKGLEWVSGITWNGGSTGYADSVKDRFTISRDNAKNSLYLQMNSLRAEDTALYYCVRDKYSYAWSYDDFDIWGQGTMVTVSSGGGGSGGGGSGGGGSGGGGSGGGGSGGGGSEVQLVESGGGLVKPGGSLRLSCAASGFTFSNYNMNWVRQAPGKGLEWVSSISSAGTHIYYADSVKGRFTISRDNAKNSLYLQMNSLRAEDTAVYYCARDPHSTGWYKDFDYWGQGTLVTVSSGGGGSGGGGSGGGGSGGGGSGGGGSGGGGSEVQLVESGGGVVQPGGSLRLSCAASGFTFSNYGMHWVRQAPGKGLEWVAVISNDGNTKTYADSVKGRFTISRDNSKNTLYLQMNSLRAEDTAVYYCAQDETTTVTASYYFDYWGQGTLVTVSSAAAHHHHHH
notes: Single-chain VH fusion (PD-1 VH, HSA VH, CD137 VH), His tag
B3: TPP-973: CD137A -6GS-PDA2-6GS-HSA2-His (bispecific antibody)
chain: EVQLVESGGGLVQPGGSLRLSCAASGFTLSNYWMNWVRQAPGKGLEWVANINQDGSERYYVDSVKGRFTISRDNAKNSLYLQMNSLRAEDTAVYYCARGGEGYGVDHYGLDVSGQGTTVTVSSGGGGSGGGGSGGGGSGGGGSGGGGSGGGGSEVQLVESGGGVVRPGGSLRLSCAASGFTFDDYAMSWVRQAPGKGLEWVSGITWNAGSTGYADSVKGRFTISRDNAKNSLYLQMNSLRAEDTALYYCVRDKYSYAWSYDDFDIWGQGTMVTVSSGGGGSGGGGSGGGGSGGGGSGGGGSGGGGSEVQLVESGGGLVKPGGSLRLSCAASGFTFSNYNMNWVRQAPGKGLEWVSSISSAGTHIYYADSVKGRFTISRDNAKNSLYLQMNSLRAEDTAVYYCARDPHSTGWYKDFDYWGQGTLVTVSSAAAHHHHHH
notes: Single-chain VH fusion (CD137 VH, PD-1 VH, HSA VH), His tag
B4: TPP-1290 PD138G7(G109D)-6GS-CD137A-6GS-HSA2 (bispecific antibody)
chain: EVQLVESGGGVVRPGGSLRLSCAASGFTFDDYAMSWVRQAPGKGLEWVSGITWNGGSTGYADSVKDRFTISRDNAKNSLYLQMNSLRAEDTALYYCVRDKYSYAWSYDDFDIWGQGTMVTVSSGGGGSGGGGSGGGGSGGGGSGGGGSGGGGSEVQLVESGGGLVQPGGSLRLSCAASGFTLSNYWMNWVRQAPGKGLEWVANINQDGSERYYVDSVKGRFTISRDNAKNSLYLQMNSLRAEDTAVYYCARGGEGYGVDHYGLDVSGQGTTVTVSSGGGGSGGGGSGGGGSGGGGSGGGGSGGGGSEVQLVESGGGLVKPGGSLRLSCAASGFTFSNYNMNWVRQAPGKGLEWVSSISSAGTHIYYADSVKGRFTISRDNAKNSLYLQMNSLRAEDTAVYYCARDPHSTGWYKDFDYWGQGTLVTVSS
B5: TPP-1246 CD137A-6GS-HSA2-6GS-PD138G7(G109D) (bispecific antibody)
chain: EVQLVESGGGLVQPGGSLRLSCAASGFTLSNYWMNWVRQAPGKGLEWVANINQDGSERYYVDSVKGRFTISRDNAKNSLYLQMNSLRAEDTAVYYCARGGEGYGVDHYGLDVSGQGTTVTVSSGGGGSGGGGSGGGGSGGGGSGGGGSGGGGSEVQLVESGGGLVKPGGSLRLSCAASGFTFSNYNMNWVRQAPGKGLEWVSSISSAGTHIYYADSVKGRFTISRDNAKNSLYLQMNSLRAEDTAVYYCARDPHSTGWYKDFDYWGQGTLVTVSSGGGGSGGGGSGGGGSGGGGSGGGGSGGGGSEVQLVESGGGVVRPGGSLRLSCAASGFTFDDYAMSWVRQAPGKGLEWVSGITWNGGSTGYADSVKDRFTISRDNAKNSLYLQMNSLRAEDTALYYCVRDKYSYAWSYDDFDIWGQGTMVTVSS

These binders were tested against T1, human PD-1 expressed on CHO cells (human, UniProt Q15116 21-288) (assay: flow cytometry on CHO huPD1 cells).
T1 construct: also called CHO huPD1; CHO human PD1 cells

EC50 | Binder
25.4 nM | B1
0.531 nM | B2
108 nM | B3
22.7 nM | B4
20.5 nM | B5

These binders were tested against T1, human PD-1 expressed on CHO cells (assay: FMAT/Mirrorball on CHO huPD1 cells).
Method in brief: (§1)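 His-tagged VH molecules bound to CHO cells expressing human PD-1 or human CD137, with CHO parent cells as control, in PBS pH 7.4, 0.1% BSA, 0.05% sodium azide. Read by FMAT on Mirrorball (ex 488/640 nm); binding taken as FL2 median fluorescence intensity of FL5-gated events.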

EC50 | Binder
0.162 nM | B2
0.481 nM | B3

These binders were tested against T2, human CD137 expressed on CHO cells (human, UniProt Q07011 18-255) (assay: flow cytometry on CHO huCD137 cells).
T2 construct: also called CHO huCD137; CHO human CD137 cells

EC50 | Binder
3.39 nM | B1
9.39 nM | B2
0.595 nM | B3
4.45 nM | B4
2.48 nM | B5

These binders were tested against T2, human CD137 expressed on CHO cells (assay: FMAT/Mirrorball on CHO huCD137 cells).
Method in brief: as §1

EC50 | Binder
0.101 nM | B2
0.0781 nM | B3
